Results from article PMC6555819, “Comprehensive study of nuclear receptor DNA binding provides a revised framework for understanding receptor specificity”.

Columns and labels:
Assay in all cases: no ligand; PBM; 270 nM : 90 nM RXRa; PBS pH 7.4, 2% milk, 0.02% Triton X-100, 1 mM DTT, BSA, 0.4 mg/ml salmon testes DNA
Details in all cases: tags: His kept;His cleaved; copies: 1;1; label: surface-attached array probe
FXR:RXRa = FXR:RXRa (Homo sapiens, UniProt Q96RI1;P19793 full;full)
Method in brief: (§1)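 Custom Agilent 4×180K protein-binding microarrays carried double-stranded probes. Their 34-nt variable regions held direct-repeat seeds, single-nucleotide variants, half-site ablations and random human genomic background sequences. Arrays were incubated 1 h with ligand-free nuclear receptor dimers in PBS pH 7.4, 2% milk, 0.02% Triton X-100, 1 mM DTT, 0.2 mg/mL BSA and 0.4 mg/ml salmon testes DNA. Antibodies against each partner (one per run) detected binding, and scanned fluorescence was regression-normalized. Binding z-scores use random background probes as reference.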

RARg:RXRa = RARg:RXRa (Homo sapiens, UniProt P13631;P19793 full;full)
Chain of RARg:RXRa (P13631 whole entry, chain 1 of 2): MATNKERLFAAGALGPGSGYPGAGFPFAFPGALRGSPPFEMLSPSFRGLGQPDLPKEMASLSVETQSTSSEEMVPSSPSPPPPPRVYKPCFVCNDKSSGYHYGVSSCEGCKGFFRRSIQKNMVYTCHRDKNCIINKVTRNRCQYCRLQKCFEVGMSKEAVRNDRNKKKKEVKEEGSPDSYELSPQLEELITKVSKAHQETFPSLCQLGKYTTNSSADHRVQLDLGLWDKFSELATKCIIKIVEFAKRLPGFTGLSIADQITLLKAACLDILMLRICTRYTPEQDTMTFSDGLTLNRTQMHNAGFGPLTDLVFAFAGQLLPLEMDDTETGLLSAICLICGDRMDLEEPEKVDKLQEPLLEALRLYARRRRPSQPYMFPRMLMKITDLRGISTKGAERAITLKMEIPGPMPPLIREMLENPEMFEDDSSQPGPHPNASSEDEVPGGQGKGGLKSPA
Chain of RARg:RXRa (P19793 whole entry, chain 2 of 2): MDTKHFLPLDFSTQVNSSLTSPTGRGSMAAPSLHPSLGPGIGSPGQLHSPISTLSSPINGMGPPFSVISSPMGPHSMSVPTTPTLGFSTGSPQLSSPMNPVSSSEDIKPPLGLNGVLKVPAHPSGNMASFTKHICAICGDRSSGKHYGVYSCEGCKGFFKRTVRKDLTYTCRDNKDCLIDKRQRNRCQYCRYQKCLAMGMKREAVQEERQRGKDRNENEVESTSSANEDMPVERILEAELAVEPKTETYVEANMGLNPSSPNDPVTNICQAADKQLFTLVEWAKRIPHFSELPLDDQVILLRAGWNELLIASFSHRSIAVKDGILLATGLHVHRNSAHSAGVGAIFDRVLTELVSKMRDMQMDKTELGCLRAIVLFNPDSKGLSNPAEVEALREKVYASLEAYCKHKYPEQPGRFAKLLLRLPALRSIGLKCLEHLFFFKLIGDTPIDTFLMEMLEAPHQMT
Method in brief: as §1

RARb:RXRa = RARb:RXRa (Homo sapiens, UniProt P10826;P19793 full;full)
Chain of RARb:RXRa (P10826 whole entry, chain 1 of 2): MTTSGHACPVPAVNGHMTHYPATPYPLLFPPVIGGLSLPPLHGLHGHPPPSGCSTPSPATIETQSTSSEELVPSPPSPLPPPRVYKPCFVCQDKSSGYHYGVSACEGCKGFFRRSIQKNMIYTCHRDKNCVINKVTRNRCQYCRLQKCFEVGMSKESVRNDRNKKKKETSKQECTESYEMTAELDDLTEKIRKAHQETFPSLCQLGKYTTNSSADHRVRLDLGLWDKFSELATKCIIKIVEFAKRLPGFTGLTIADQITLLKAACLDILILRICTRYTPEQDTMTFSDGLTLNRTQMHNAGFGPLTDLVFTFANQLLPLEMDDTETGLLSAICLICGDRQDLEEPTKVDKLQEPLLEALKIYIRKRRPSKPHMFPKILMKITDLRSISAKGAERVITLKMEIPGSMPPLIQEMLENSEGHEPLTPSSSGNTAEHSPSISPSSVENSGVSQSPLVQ
Chain of RARb:RXRa (P19793 whole entry, chain 2 of 2): as the sequence (P19793 whole entry, chain 2 of 2) above
Method in brief: as §1

Chain of FXR:RXRa (Q96RI1 whole entry, chain 1 of 2): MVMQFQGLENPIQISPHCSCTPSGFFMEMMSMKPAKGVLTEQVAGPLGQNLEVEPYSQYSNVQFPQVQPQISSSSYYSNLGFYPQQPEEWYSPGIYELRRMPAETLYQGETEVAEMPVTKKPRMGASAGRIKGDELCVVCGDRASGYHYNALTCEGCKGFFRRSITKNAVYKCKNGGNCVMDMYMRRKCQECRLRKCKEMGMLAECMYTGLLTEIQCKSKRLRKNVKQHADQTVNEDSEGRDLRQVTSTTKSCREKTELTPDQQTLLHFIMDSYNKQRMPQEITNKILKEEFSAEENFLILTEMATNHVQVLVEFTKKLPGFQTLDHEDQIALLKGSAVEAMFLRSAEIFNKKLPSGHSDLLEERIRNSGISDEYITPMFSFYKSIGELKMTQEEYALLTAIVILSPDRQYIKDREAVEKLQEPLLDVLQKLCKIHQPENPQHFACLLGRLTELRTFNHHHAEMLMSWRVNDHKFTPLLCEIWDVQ
Chain of FXR:RXRa (P19793 whole entry, chain 2 of 2): as the sequence (P19793 whole entry, chain 2 of 2) above

| Binder | binding signal (FXR:RXRa) | binding signal (RARg:RXRa) | binding signal (RARb:RXRa) |
| --- | --- | --- | --- |
| NRC3_random_hg19_374_o1 (dsDNA) DNA 1: GCTAGACTGGCGACTGCTTGATTCATGGCTGAGTCTGCGATTGACAGCGTAGAATGAAGG DNA 2: CCTTCATTCTACGCTGTCAATCGCAGACTCAGCCATGAATCAAGCAGTCGCCAGTCTAGC | -0.55 PBM z-score against 500 random probes | -0.21 PBM z-score against 500 random probes |  |
| NRC3_wobSeed97_DR4_A26C_o1 (dsDNA) DNA 1: GCCAAACTAGGTCACGAAAGGTCAACGTCGAATGACGCGATTGACAGCGTAGAATGAAGG DNA 2: CCTTCATTCTACGCTGTCAATCGCGTCATTCGACGTTGACCTTTCGTGACCTAGTTTGGC |  |  | 6.08 PBM z-score against 500 random probes |
| NRC3_wobSeed13_DR0_C7T_o1 (dsDNA) DNA 1: GCCGTCTAAGGTCAAGGTCAGTGAAAGAGACTCGAAGCGATTGACAGCGTAGAATGAAGG DNA 2: CCTTCATTCTACGCTGTCAATCGCTTCGAGTCTCTTTCACTGACCTTGACCTTAGACGGC |  |  | 6 PBM z-score against 500 random probes |
| NRC3_wobSeed109_DR4_C6T_o1 (dsDNA) DNA 1: GCCGTTCAAGGTCATAGGAGGTCAGTGAAGACAGATGCGATTGACAGCGTAGAATGAAGG DNA 2: CCTTCATTCTACGCTGTCAATCGCATCTGTCTTCACTGACCTCCTATGACCTTGAACGGC |  |  | 5.82 PBM z-score against 500 random probes |
| NRC3_wobSeed49_DR2_A6G_o1 (dsDNA) DNA 1: GCCAAGCTAGGTCAAGAGGTCAAAGTCCGCTTCCCGGCGATTGACAGCGTAGAATGAAGG DNA 2: CCTTCATTCTACGCTGTCAATCGCCGGGAAGCGGACTTTGACCTCTTGACCTAGCTTGGC |  |  | 5.77 PBM z-score against 500 random probes |
| NRC3_wobSeed133_DR5_T16C_o1 (dsDNA) DNA 1: GCCGTCCAAGGTCAACGCTAGGTCAGTGAAAGCATTGCGATTGACAGCGTAGAATGAAGG DNA 2: CCTTCATTCTACGCTGTCAATCGCAATGCTTTCACTGACCTAGCGTTGACCTTGGACGGC |  |  | 5.63 PBM z-score against 500 random probes |
| NRC3_wobSeed73_DR3_A25C_o1 (dsDNA) DNA 1: GCCAAACTAGGTCACAGAGGTCAACGTCCGTGCGTAGCGATTGACAGCGTAGAATGAAGG DNA 2: CCTTCATTCTACGCTGTCAATCGCTACGCACGGACGTTGACCTCTGTGACCTAGTTTGGC |  |  | 5.59 PBM z-score against 500 random probes |
| NRC3_wobSeed61_DR2_C7T_o1 (dsDNA) DNA 1: GCCGTCTAAGGTCAGCAGGTCAGTGAAAGCGACGTGGCGATTGACAGCGTAGAATGAAGG DNA 2: CCTTCATTCTACGCTGTCAATCGCCACGTCGCTTTCACTGACCTGCTGACCTTAGACGGC |  |  | 5.58 PBM z-score against 500 random probes |
| NRC3_wobSeed61_DR2_G23C_o1 (dsDNA) DNA 1: GCCGTCCAAGGTCAGCAGGTCACTGAAAGCGACGTGGCGATTGACAGCGTAGAATGAAGG DNA 2: CCTTCATTCTACGCTGTCAATCGCCACGTCGCTTTCAGTGACCTGCTGACCTTGGACGGC |  |  | 5.58 PBM z-score against 500 random probes |
| NRC3_wobSeed85_DR3_C6G_o1 (dsDNA) DNA 1: GCCGTGCAAGGTCAGAGAGGTCAGTGAATGCCGAGTGCGATTGACAGCGTAGAATGAAGG DNA 2: CCTTCATTCTACGCTGTCAATCGCACTCGGCATTCACTGACCTCTCTGACCTTGCACGGC |  |  | 5.58 PBM z-score against 500 random probes |
| NRC3_wobSeed61_DR2_G15A_o1 (dsDNA) DNA 1: GCCGTCCAAGGTCAACAGGTCAGTGAAAGCGACGTGGCGATTGACAGCGTAGAATGAAGG DNA 2: CCTTCATTCTACGCTGTCAATCGCCACGTCGCTTTCACTGACCTGTTGACCTTGGACGGC |  |  | 5.56 PBM z-score against 500 random probes |
| NRC3_wobSeed134_DR5_T8A_o1 (dsDNA) DNA 1: GCGCTGCAAGGTCAACTGATGGTCAGCTAAAGCTCGGCGATTGACAGCGTAGAATGAAGG DNA 2: CCTTCATTCTACGCTGTCAATCGCCGAGCTTTAGCTGACCATCAGTTGACCTTGCAGCGC |  |  | 5.55 PBM z-score against 500 random probes |
| NRC3_wobSeed117_DR4_A29T_o1 (dsDNA) DNA 1: GCCGTCAAAGTTCAACTAAGGTAACGTATAGCACGCGCGATTGACAGCGTAGAATGAAGG DNA 2: CCTTCATTCTACGCTGTCAATCGCGCGTGCTATACGTTACCTTAGTTGAACTTTGACGGC |  |  | 5.55 PBM z-score against 500 random probes |
| NRC3_wobSeed69_DR2_T16G_o1 (dsDNA) DNA 1: GCAGTCAAAGTTCACGAGGTAACGTAAGATTCAGCTGCGATTGACAGCGTAGAATGAAGG DNA 2: CCTTCATTCTACGCTGTCAATCGCAGCTGAATCTTACGTTACCTCGTGAACTTTGACTGC |  |  | 5.54 PBM z-score against 500 random probes |
| NRC3_wobSeed117_DR4_G21T_o1 (dsDNA) DNA 1: GCCGTCAAAGTTCAACTAAGTTAACGTAAAGCACGCGCGATTGACAGCGTAGAATGAAGG DNA 2: CCTTCATTCTACGCTGTCAATCGCGCGTGCTTTACGTTAACTTAGTTGAACTTTGACGGC |  |  | 5.53 PBM z-score against 500 random probes |
| NRC3_wobSeed21_DR0_G17T_o1 (dsDNA) DNA 1: GCCGTCAAAGTTCAAGTTAACGTAACAGAAAGCAGCGCGATTGACAGCGTAGAATGAAGG DNA 2: CCTTCATTCTACGCTGTCAATCGCGCTGCTTTCTGTTACGTTAACTTGAACTTTGACGGC |  |  | 5.46 PBM z-score against 500 random probes |

| Binder | binding signal (FXR:RXRa) | binding signal (RARg:RXRa) | binding signal (RARb:RXRa) |
| --- | --- | --- | --- |
| NRC3_wobSeed21_DR0_A19T_o1 (dsDNA) DNA 1: GCCGTCAAAGTTCAAGGTTACGTAACAGAAAGCAGCGCGATTGACAGCGTAGAATGAAGG DNA 2: CCTTCATTCTACGCTGTCAATCGCGCTGCTTTCTGTTACGTAACCTTGAACTTTGACGGC |  |  | 5.43 PBM z-score against 500 random probes |
| NRC3_wobSeed141_DR5_G15C_o1 (dsDNA) DNA 1: GCAGTCAAAGTTCACGACGAGGTAACGTAAAGCACGGCGATTGACAGCGTAGAATGAAGG DNA 2: CCTTCATTCTACGCTGTCAATCGCCGTGCTTTACGTTACCTCGTCGTGAACTTTGACTGC |  |  | 5.43 PBM z-score against 500 random probes |
| NRC3_wobSeed51_DR2_T5C_o1 (dsDNA) DNA 1: GCCCCCGGAGGACAGAAGGTCAGAGCTGTCCGCTTTGCGATTGACAGCGTAGAATGAAGG DNA 2: CCTTCATTCTACGCTGTCAATCGCAAAGCGGACAGCTCTGACCTTCTGTCCTCCGGGGGC |  |  | 3.13 PBM z-score against 500 random probes |
| NRC3_wobSeed12_DR0_T8G_o1 (dsDNA) DNA 1: GCCCGACGGGGGCAAGGTTACCATAACGCACAGCCAGCGATTGACAGCGTAGAATGAAGG DNA 2: CCTTCATTCTACGCTGTCAATCGCTGGCTGTGCGTTATGGTAACCTTGCCCCCGTCGGGC |  |  | 3.13 PBM z-score against 500 random probes |
| NRC3_wobSeed89_DR3_G18A_o1 (dsDNA) DNA 1: GCCTATGTAGGTTAAGGAGGTCATTCAGTTTGAAAGGCGATTGACAGCGTAGAATGAAGG DNA 2: CCTTCATTCTACGCTGTCAATCGCCTTTCAAACTGAATGACCTCCTTAACCTACATAGGC |  |  | 3.12 PBM z-score against 500 random probes |
| NRC3_wobSeed115_DR4_A23C_o1 (dsDNA) DNA 1: GCACAGACAGGTGAGTGAAGGTCACTCAGCTGGACGGCGATTGACAGCGTAGAATGAAGG DNA 2: CCTTCATTCTACGCTGTCAATCGCCGTCCAGCTGAGTGACCTTCACTCACCTGTCTGTGC |  |  | 3.12 PBM z-score against 500 random probes |
| NRC3_wobSeed9_DR0_G21T_o1 (dsDNA) DNA 1: GCATCTCTAGGTAAAGTTCATTGAAAGATCGATAGAGCGATTGACAGCGTAGAATGAAGG DNA 2: CCTTCATTCTACGCTGTCAATCGCTCTATCGATCTTTCAATGAACTTTACCTAGAGATGC |  |  | 3.11 PBM z-score against 500 random probes |
| NRC3_wobSeed123_DR5_C4G_o1 (dsDNA) DNA 1: GCCGTCGGAGGACAACAGGAGGTCAGAGCTGCCAGAGCGATTGACAGCGTAGAATGAAGG DNA 2: CCTTCATTCTACGCTGTCAATCGCTCTGGCAGCTCTGACCTCCTGTTGTCCTCCGACGGC |  |  | 3.11 PBM z-score against 500 random probes |
| NRC3_wobSeed112_DR4_C22G_o1 (dsDNA) DNA 1: GCTAGCCTAGGTCAGATCGGGGCAGTATACGCTATAGCGATTGACAGCGTAGAATGAAGG DNA 2: CCTTCATTCTACGCTGTCAATCGCTATAGCGTATACTGCCCCGATCTGACCTAGGCTAGC |  |  | 3.1 PBM z-score against 500 random probes |
| NRC3_wobSeed123_DR5_A15C_o1 (dsDNA) DNA 1: GCCCTCGGAGGACACCAGGAGGTCAGAGCTGCCAGAGCGATTGACAGCGTAGAATGAAGG DNA 2: CCTTCATTCTACGCTGTCAATCGCTCTGGCAGCTCTGACCTCCTGGTGTCCTCCGAGGGC |  |  | 3.1 PBM z-score against 500 random probes |
| NRC3_wobSeed106_DR4_T28A_o1 (dsDNA) DNA 1: GCCTCGAAAGGTCGGTTGAGGTGAGTAAACGGATAAGCGATTGACAGCGTAGAATGAAGG DNA 2: CCTTCATTCTACGCTGTCAATCGCTTATCCGTTTACTCACCTCAACCGACCTTTCGAGGC |  |  | 3.1 PBM z-score against 500 random probes |
| NRC3_wobSeed51_DR2_C4G_o1 (dsDNA) DNA 1: GCCGTCGGAGGACAGAAGGTCAGAGCTGTCCGCTTTGCGATTGACAGCGTAGAATGAAGG DNA 2: CCTTCATTCTACGCTGTCAATCGCAAAGCGGACAGCTCTGACCTTCTGTCCTCCGACGGC |  |  | 3.1 PBM z-score against 500 random probes |
| NRC3_wobSeed120_DR4_A17G_o1 (dsDNA) DNA 1: GCCCGAGTAGGTTACGGGGGGGCATTCAGTGCGAATGCGATTGACAGCGTAGAATGAAGG DNA 2: CCTTCATTCTACGCTGTCAATCGCATTCGCACTGAATGCCCCCCCGTAACCTACTCGGGC |  |  | 3.09 PBM z-score against 500 random probes |
| NRC3_wobSeed136_DR5_T8G_o1 (dsDNA) DNA 1: GCTAGCCGAGGTCATTCAGGGGCCAGTATAGAAAGCGCGATTGACAGCGTAGAATGAAGG DNA 2: CCTTCATTCTACGCTGTCAATCGCGCTTTCTATACTGGCCCCTGAATGACCTCGGCTAGC | 7.79 PBM z-score against 500 random probes | 7.94 PBM z-score against 500 random probes |  |
| NRC3_wobSeed39_DR1_G4C_o1 (dsDNA) DNA 1: GCCCAACTAGGTCAAAGGACAGTGAAAGGCGACGTAGCGATTGACAGCGTAGAATGAAGG DNA 2: CCTTCATTCTACGCTGTCAATCGCTACGTCGCCTTTCACTGTCCTTTGACCTAGTTGGGC | 3.67 PBM z-score against 500 random probes | 3.99 PBM z-score against 500 random probes |  |
